Measurements published in patent US20240190986A1 (ZHEJIANG NANOMAB TECHNOLOGY CENTER, published 2024).

B1: M119-IgG4 (antibody, V domains shown)
VH: EVQLVESGGGLVQPGGSLRLSCVASGSDLSFDAMGWYRQFSATVRERQLVVATSRDGRIYYGDSVKGRFTASRDNLKNSVDLEMNNLKPEDTAIYYCAAGDDPKNYDWGPGTQVTVSS
notes: also called M119 heavy chain antibody
B2: M344-IgG4 (antibody, V domains shown)
VH: QVQLVESGGGLVQSGGSLRLSCVASGSAFSFDAMGWYRQFSATRRERQLVVATSRDGRTYYADSVKGRFTATRDNSKNSLYLEMNSLKPEDTAIYYCAAGDDPKNYSWGQGTQVTVSS
notes: also called M344 heavy chain antibody
B3: M044-IgG4 (antibody, V domains shown)
VH: QVQVVESGGGFVQAGGSLRLSCAASTPIISIAYMGWYRQISEKERQLVATINSGGKTYYADSVKGRFTISRDNAKNTLYLQMNMLKPEDTGMYYCAASNKDYNDYDPDWGQGTQVTVSS
notes: also called M044 heavy chain antibody
B4: M129-IgG4 (antibody, V domains shown)
VH: QVQLVESGGGSAQAGGSLILSCVASANLFTIDALGWYRQAPGPKRELVAAISSGGNKYYADAVKGRFTISRDTLTKTMWLQMNNLKPEDTAMYYCAAEDYGLGQRSWGMGTQVTVSS
notes: also called M129 heavy chain antibody
B5: M156-IgG4 (antibody, V domains shown)
VH: QVQLVESGGGLVQAGGSLRLSCAVSGISFEYYAIGWFRQAPGKEREAVSCTTSGTTSGGGVTDYADSLKGRFTISRDVAKNTVYLQMNNLTPEDTAVYYCAADIHCRGYVLFVPSDFGNWGQGTQVTVSS
notes: also called M156 heavy chain antibody
B6: M003-IgG4 (antibody, V domains shown)
VH: QVQLVESGGGLVQAGGSLRLSCTASGNIFSINAMGWYRQPPGKEWERELVATISSTNSDNTYYKESVKGRFTISTNTAKNTWYLQMNSLKPEDTAMYYCAAENFDRKDRYWAQGTQVTVSS
notes: also called M003 heavy chain antibody
B7: M2339-IgG4 (antibody, V domains shown)
VH: QLQLGASGGGLVQPGGSLRLSCALSGFTLRELDEFAIGWFRQAPGKEREGVSCISGTGGITHYADSVKGRFTISRDIAKTTVYLQMNSLNSEDTAVYYCAADERCTDRLIRPPTYWGQGTQVTVSS
notes: also called M2339 heavy chain antibody
B8: M2339 (VHH)
VHH: B7 VH
notes: Nanoantibody in TG1 supernatant in the screening ELISA; also called clone M2339

target: T1, segment III of MSLN expressed on HEK293T cells (UniProt Q13421 487-598, limits assumed); assay: flow cytometry on HEK293T cells expressing MSLN segment III, anti-human IgG PE secondary, fitted curve
T1 construct: domain: segment III of MSLN; also called HEK293T MSLN-III cells; MSLN segment III protein overexpressing cell line
T1 sequence (Q13421 495-606 limits assumed): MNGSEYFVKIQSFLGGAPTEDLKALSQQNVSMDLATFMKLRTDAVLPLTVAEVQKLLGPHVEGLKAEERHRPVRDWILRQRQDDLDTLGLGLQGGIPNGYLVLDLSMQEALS

Binder | EC50
B1 | 3.91 nM
B2 | 3.39 nM
B3 | 10.6 nM
B4 | 6.24 nM
B5 | 4.15 nM
B6 | 4.95 nM

target: T2, MSLN·His protein (human, UniProt Q13421 296-580, limits assumed); assay: SPR (Biacore), antibody captured on protein A, MSLN·His as analyte
T2 construct: Bought protein; also called human MSLN·His antigen; not shown: His tag
T2 sequence (Q13421 other isoform, or with tags, fused parts or gaps limits assumed): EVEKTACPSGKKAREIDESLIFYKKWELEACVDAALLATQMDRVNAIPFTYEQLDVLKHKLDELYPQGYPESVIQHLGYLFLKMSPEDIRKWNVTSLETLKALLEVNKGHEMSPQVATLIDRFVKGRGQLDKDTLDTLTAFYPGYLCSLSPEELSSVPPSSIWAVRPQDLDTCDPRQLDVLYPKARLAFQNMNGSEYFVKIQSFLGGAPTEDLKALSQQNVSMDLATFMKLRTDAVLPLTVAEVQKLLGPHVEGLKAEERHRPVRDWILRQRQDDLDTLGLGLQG
Description: (1) Detection of affinity at protein level: the binding kinetics and affinity of heavy chain antibody to human MSLN·His antigen were determined using surface plasmon resonance (SPR). The purified antibody was flowed through the sensor chips pre-immobilized with protein A, and the antibody was captured by protein A. Then five different concentrations of MSLN·His protein were used as the mobile phase, and the binding time and dissociation time were 30 min and 60 min, respectively. Biacore Evaluation Software 2.0 (GE) was used to analyze the binding rate (kon, or ka), dissociation rate (koff, or kd) and equilibrium constant (KD). The rabbit antibody YP218, which binds to segment III of mesothelin, was selected as a positive control (Zhang et al., Sci Rep 2015, 21; 5:9928).

Binder | Kd | koff | kon
B1 | 0.12 nM | 9.58e-05 s⁻¹ | 826000 M⁻¹ s⁻¹
B2 | 0.07 nM | 2.35e-05 s⁻¹ | 359000 M⁻¹ s⁻¹
B7 | 0.264 nM | 1.82e-05 s⁻¹ | 69000 M⁻¹ s⁻¹
B3 | 2.1 nM | 7.5e-05 s⁻¹ | 53700 M⁻¹ s⁻¹
B4 | 0.04 nM | 5.37e-05 s⁻¹ | 1.4e+06 M⁻¹ s⁻¹
B5 | 0.09 nM | 5.4e-05 s⁻¹ | 592000 M⁻¹ s⁻¹
B6 | 0.49 nM | 0.000429 s⁻¹ | 882000 M⁻¹ s⁻¹

target: T2, MSLN·His protein; assay: ELISA, antigen coated, TG1 supernatant

Binder | ELISA (OD450)
B8 | 2.15 OD450

target: T3, MSLN on SKOV3 and Aspc-1 tumor cells (UniProt Q13421 296-598); assay: flow cytometry on SKOV3 tumor cells, anti-human IgG PE secondary, fitted curve
T3 construct: whole, on cells; Endogenous mesothelin of tumor cell lines; also called SKOV3 tumor cell line; AsPC-1 tumor cell line
T3 sequence (Q13421 other isoform, or with tags, fused parts or gaps limits assumed): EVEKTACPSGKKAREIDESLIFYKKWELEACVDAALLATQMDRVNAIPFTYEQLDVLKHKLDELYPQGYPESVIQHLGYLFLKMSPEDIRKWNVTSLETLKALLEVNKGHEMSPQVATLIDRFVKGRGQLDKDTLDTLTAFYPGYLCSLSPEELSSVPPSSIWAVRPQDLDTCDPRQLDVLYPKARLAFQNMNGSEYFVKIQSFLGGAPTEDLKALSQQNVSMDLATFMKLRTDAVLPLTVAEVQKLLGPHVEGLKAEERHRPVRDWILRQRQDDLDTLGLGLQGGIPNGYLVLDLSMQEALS

Binder | EC50
B1 | 1.63 nM
B2 | 1.36 nM
B3 | 0.512 nM
B4 | 1.85 nM
B5 | 1.05 nM
B6 | 1.62 nM

target: T3, MSLN on SKOV3 and Aspc-1 tumor cells; assay: flow cytometry on Aspc-1 tumor cells, anti-human IgG PE secondary, fitted curve

Binder | EC50
B1 | 4.25 nM
B2 | 3.59 nM
B3 | 17.4 nM
B4 | 2.79 nM
B5 | 5.37 nM
B6 | 5.31 nM
